According to US20050049402A1 (Amgen, published 2005):

T1: mouse TNFα (mouse, UniProt P06804 80-235)
T1 construct: also called M TNFα; murine TNF
T1 sequence: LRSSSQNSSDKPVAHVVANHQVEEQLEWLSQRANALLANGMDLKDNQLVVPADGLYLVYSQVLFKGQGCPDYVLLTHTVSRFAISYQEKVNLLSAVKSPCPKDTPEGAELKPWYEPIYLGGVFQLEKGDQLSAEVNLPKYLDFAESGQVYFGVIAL

T2: H/M PvuII chimeric TNFα (human 1-125, murine 126-157) (human; mouse)
T2 construct: also called Hu/M PVu11
T2 chain: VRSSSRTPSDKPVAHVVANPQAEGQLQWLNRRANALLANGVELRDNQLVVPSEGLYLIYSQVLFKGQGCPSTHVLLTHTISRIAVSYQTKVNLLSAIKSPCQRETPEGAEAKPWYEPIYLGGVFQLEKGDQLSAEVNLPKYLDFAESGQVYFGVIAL

T3: H/M HincII chimeric TNFα (human 1-91, murine 92-157) (human; mouse)
T3 construct: Murine range printed 92-157 (human-aligned); also called Hu/M Hin C l1
T3 chain: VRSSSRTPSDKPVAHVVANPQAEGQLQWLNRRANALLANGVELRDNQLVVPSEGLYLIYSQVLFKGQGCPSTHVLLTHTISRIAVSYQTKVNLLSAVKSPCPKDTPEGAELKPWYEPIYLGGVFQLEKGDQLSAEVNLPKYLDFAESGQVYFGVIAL

T4: H/M BglI chimeric TNFα (human 1-36, murine 37-157) (human; mouse, UniProt P06804 81-235)
T4 construct: Murine range is printed as 37-157 in human-aligned numbering; also called H/MBgl1; Hu/MBgl1
T4 chain: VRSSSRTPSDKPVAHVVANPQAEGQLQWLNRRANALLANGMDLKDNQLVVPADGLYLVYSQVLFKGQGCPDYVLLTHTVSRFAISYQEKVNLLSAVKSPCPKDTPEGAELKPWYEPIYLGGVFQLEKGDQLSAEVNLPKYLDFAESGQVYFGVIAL


Columns and labels:
[1] = target: T5, human TNFα (Tumor Necrosis Factor-alpha), soluble (human, UniProt P01375 77-233); assay: KinExA, TNFα counted as three monomers; KinExA, three monomers (17.5 kDa); upper bound of the Kd fit
T5 construct: Recombinant (R&D 210-TA/CF) in screens; biotinylated in the limited antigen assay; also called hTNFα; H-TNFα
Procedure: (§1) The kinetic measurements of the anti-TNFα antibodies were evaluated using KinExA® and BIACORE® technologies. The KinExA® method involves solution-based determination of formal affinity measurements at equilibrium. To measure the binding kinetics of each human anti-TNFα antibody, two experiments in replicates of three were performed. In both experiments a known concentration of antigen was titrated and a different antibody concentration was added to each antigen titration and allowed to reach binding equilibrium. […] The results were analyzed by dual curve analysis. […] In addition, to negate the possibility of avidity effects, Fab fragments were generated by papain cleavage and the kinetic analysis was repeated (see Table 24).

[2] = target: T5, human TNFα (Tumor Necrosis …); assay: KinExA, TNFα counted as one trimer; KinExA, one trimer (52.5 kDa); lower bound of the Kd fit
Procedure: as §1

[3] = target: T5, human TNFα (Tumor Necrosis …); assay: KinExA, TNFα counted as three monomers
Procedure: as §1

[4] = target: T5, human TNFα (Tumor Necrosis …); assay: KinExA, TNFα counted as three monomers; KinExA in solution; TNFα site concentration as three monomers (17.5 kDa)
Procedure: as §1

[5] = target: T5, human TNFα (Tumor Necrosis …); assay: KinExA, TNFα counted as one trimer; KinExA in solution; TNFα site concentration as one trimer (52.5 kDa)
Procedure: as §1

[6] = target: T5, human TNFα (Tumor Necrosis …); assay: KinExA, TNFα counted as one trimer; KinExA, one trimer (52.5 kDa); upper bound of the Kd fit
Procedure: as §1

[7] = target: T5, human TNFα (Tumor Necrosis …); assay: cell-based or functional assay
[8] = target: transmembrane mutant TNFα expressed on the surface of CHO cells (UniProt P01375 1-233); assay: cell-based or functional assay
mouse TNFα = target: T1, mouse TNFα; assay: binding to chimeric TNF proteins
[9] = target: T5, human TNFα (Tumor Necrosis …); assay: KinExA, TNFα counted as one trimer
Procedure: as §1

[10] = target: T6, monkey (cynomolgous macaque) GST-TNFα (cynomolgous macaque, UniProt P79337 77-233); assay: ELISA, plate coated with 2 µg/ml monkey (cynomolgus macaque) GST-TNFα, HRP goat anti-human IgG detection
T6 construct: also called E. coli expressed soluble cynomolgous macaque monkey TNF; monkey TNFα; not shown: GST fusion partner
Procedure: (§2) Anti-TNFα antibodies were also tested for their ability to bind to soluble recombinant TNFα. Human and monkey (cynomolgous macaque) TNFα were expressed in E. coli as fusion proteins with GST. Binding was assessed by ELISA. […] Bound antibody was detected using an HRP-conjugated goat anti-human IgG antibody.

[11] = target: T5, human TNFα (Tumor Necrosis …); assay: cell-based or functional assay; remark: listed apart in the source
human GST-TNFα = target: T7, human GST-TNFα (human, UniProt P01375 77-233); assay: ELISA, plate coated with 0.5 µg/ml human GST-TNFα, HRP goat anti-human IgG detection
T7 construct: also called E. coli expressed soluble human TNF; not shown: GST fusion partner
Procedure: as §2

[12] = target: T5, human TNFα (Tumor Necrosis …); assay: cell-based or functional assay; remark: listed apart in the source
[13] = target: human TNFα R31Q, Q27E mutant (human, UniProt P01375 77-233); assay: ELISA on chimeric/mutant TNFα
Text: (§3) In order to define the binding site for different antibodies, a number of residues of hTNFα were mutated using site directed mutagenesis. A panel of antibodies was screened for binding by an ELISA assay. […] Histidine at position 73 was deleted, an example is illustrated in Table 19.

human TNFα R131Q mutant = human TNFα R131Q mutant (human, UniProt P01375 77-233); assay: ELISA on chimeric/mutant TNFα
Text: as §3

human TNFα R31Q mutant = human TNFα R31Q mutant (human, UniProt P01375 77-233); assay: ELISA on chimeric/mutant TNFα
Text: as §3

[14] = target: T5, human TNFα (Tumor Necrosis …); assay: cell-based or functional assay; remark: listed apart in the source
[15] = target: T5, human TNFα (Tumor Necrosis …); assay: KinExA, unknown antigen concentration method
Procedure: as §1

[16] = target: T2, H/M PvuII chimeric TNFα (human 1-125, …); assay: ELISA on chimeric/mutant TNFα
Text: as §3

[17] = target: T3, H/M HincII chimeric TNFα (human 1-91, …); assay: ELISA on chimeric/mutant TNFα
Text: as §3

[18] = target: T4, H/M BglI chimeric TNFα (human 1-36, …); assay: ELISA on chimeric/mutant TNFα
Text: as §3

[19] = target: T8, cynomolgus macaque TNFα (KinExA) (cynomolgus macaque, UniProt P79337 77-233, limits assumed); assay: KinExA, TNFα as a monomer
T8 construct: also called monkey TNFα
Procedure: as §1
(§4) The KinExA method was also used to measure the Kd describing this binding affinity.

[20] = target: T5, human TNFα (Tumor Necrosis …); assay: BIACORE, average N = 5
[21] = target: T5, human TNFα (Tumor Necrosis …); assay: BIACORE, average
[22] = target: T8, cynomolgus macaque TNFα (KinExA); assay: KinExA
Procedure: as §1, §4

[23] = target: T2, H/M PvuII chimeric TNFα (human 1-125, …); assay: ELISA on expressed TNFα constructs
[24] = target: T3, H/M HincII chimeric TNFα (human 1-91, …); assay: ELISA on expressed TNFα constructs
[25] = target: T4, H/M BglI chimeric TNFα (human 1-36, …); assay: ELISA on expressed TNFα constructs

human TNFα R31Q mutant, sequence (P01375 77-233 R107Q): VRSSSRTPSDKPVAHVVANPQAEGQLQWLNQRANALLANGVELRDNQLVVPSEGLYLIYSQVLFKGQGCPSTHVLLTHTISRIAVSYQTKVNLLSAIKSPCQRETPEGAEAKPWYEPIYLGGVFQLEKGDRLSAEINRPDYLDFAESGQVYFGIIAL
transmembrane mutant TNFα expressed on the surface of CHO cells, sequence (P01375 whole entry, stated change not applied, form in doubt): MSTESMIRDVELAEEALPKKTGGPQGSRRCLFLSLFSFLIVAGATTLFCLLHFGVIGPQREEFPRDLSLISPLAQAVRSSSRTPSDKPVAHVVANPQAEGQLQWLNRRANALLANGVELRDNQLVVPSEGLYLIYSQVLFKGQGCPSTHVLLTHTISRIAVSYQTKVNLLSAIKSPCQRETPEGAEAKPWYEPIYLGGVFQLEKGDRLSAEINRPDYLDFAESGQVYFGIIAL

ADCC (%) [8] [%]	CDC (%) [8] [%]	binding result (mouse TNFα)	EC50 (read off the curve) (human GST-TNFα) [ng/mL]	binding result [13]	binding result (human TNFα R131Q mutant)	binding result (human TNFα R31Q mutant)	binding result [16]	binding result [17]	binding result [18]	Binder	In vivo Potency (IC50), ALT, hTNFα/D-GalN hepatic injury in mice [7] [nM]	In vivo Potency (IC50), human TNFα-induced IL-6 in mice [7] [nM]	Kd [9] [pM]	Kd [3] [pM]	Whole Blood IC50, TNFα-induced IL-8 production [11] [pM]	IC50 1 hr Pre-incubation, TNF induced apoptosis in MCF-7 cells [12] [pM]	IC50 18 hr Pre-incubation, TNF induced apoptosis in MCF-7 cells [12] [pM]	other results
–	–	–	–	–	–	–	–	–	–	3.2 (hybridoma, IgG2) (antibody, V domains shown, Hybridoma derived human IgG2, lambda light chain (V1-13/JL3); also called 3.2 Ab; 3.2.1) VH: EVQLVQSGAEVKKPGESLKISCKTSEYSFTSYWIGWVRQMPGKGLEWMGIIYLGDSDTRYSPSFQGQVTISADKSISTAYLQWSSLKASDTAMYYCARSNWGLDYWGQGTLVTVSS VL: QSVLTQPPSVSGAPGQRVTISCTGSSSNIGAGYDVHWYQQFPGTAPKLLIQGNSNRPSGVPDRFSGSKSGTSASLAITGLQAEDEADYYCQSYDSSLSGSVFGGGTKLTVL	–	–	–	–	–	–	–	Kd (M) High [1]: 2.3e-11 M; Kd (M) Low [2]: 2.43e-12 M; Kd (M) Low [3]: 7.3e-12 M; Kd [4]: 0.0143 nM; Kd [5]: 4.77 pM; Kd (M) High [6]: 7.6e-12 M
10	17	no binding	~3	binds	binds	binds	–	–	–	263 (antibody, human IgG1, V domains shown, XENOMAX derived, recombinant human IgG1 kappa; also called SC263) VH: EVQLVESGGGLIQPGGSLRLSCAASGFTVSRNYMSWVRQAPGKGLEWVSVIYSGDRTYYADSVKGRFTISRDNSKNTLYLQMNSLRAEDTAVYYCARGEGGFDYWGQGTLVTVSS VL: EIVMTQSPATLSVSPGERATLSCRASQSVSSNLAWYQQKPGQAPRLLIHGASIRATGLPARFSGSGSGTEFTLTISSLQSEDFAVYYCQQYNYWWTFGQGTKVEIK	48	35	3.73	11.2	524	59.5	37	binding result [10]: no binding (tested: 100 ng/ml)
–	–	–	–	binds	binds	binds	binds	binds	binds	Rabbit R014 (AB-TNFα-R014) (antibody, rabbit IgG1, V domains shown, Fully rabbit antibody, rabbit IgG1 heavy and kappa constant regions; cloned from well 7A4; also called RO14; Rabbit 014) VH: QSLEESGGRLVTPGTPLTLTCTVSGIDLSSNTMGWFRRAPGKGLEWIGIIISSGTTYYASWVKGRFTISKTSTTVDLKITRPTTEDTATYFCARGWYEFNLWGPGTLVTVSS VL: DVVMTQTPASVEAAVGGTVTIKCQASENIDILLAWYQQKVGQPPKLLIYRASKLASGAPSRFSGSGSGTEFTLTISDLECGDAATYYCQSNVGSTARSSYGNAFGGGTEVVVK	–	–	–	–	–	–	–	Average IC50, TNF induced apoptosis on MCF-7 cells, 1 hour pre-incubation [14]: 14.2 pM; Kd [15]: 0.787 pM; Kd (M) High [15]: 2.47e-12 M; Kd (M) Low [15]: 1.56e-13 M
16	9	no binding	~4	–	binds	no binding	binds	binds	binds	299v2 (antibody, human IgG1, V domains shown, XENOMAX derived, recombinant human IgG1 kappa; also called 299v2Ab; SC299V2) VH: QVQLVESGGGVVQPGRSLRLSCAASGFTFSSYDMHWVRQAPGKGLEWVAVIWSDGSIKYYADSVKGRFTISRDNSKNTLYLQMNSLRAEDTAVYYCAREVESAMGGFYYNGMDVWGQGTTVTVSS VL: DIQMTQSPSSLSASVGDRVTITCRASQGIRIDLGWYQQKPGKAPKRLIYAASTLQSGVPSRFSGSGSGTEFIFTISSLQPEDFASYYCLQHKSYPLTFGGGTKVEIK	50	43	1.07	3.2	131	18.6	1.6	Kd [19]: 0.626 nM; koff [20]: 1.03e-05 s⁻¹; kon [20]: 2.16e+06 M⁻¹ s⁻¹; EC50 (read off the curve) [10]: ~4 ng/mL; Kd [21]: 5.7 pM; fold lower affinity than for human TNFα [22]: ~200 fold
–	–	–	–	–	binds	–	–	–	–	4.17 (hybridoma, IgG2) (antibody, V domains shown, Hybridoma derived human IgG2 kappa) VH: QVQLVESGGGVVQPGRSLRLSCTTSGFTFSNYGMHWVRQAPGKGLEWVAVIWYDGSIKYYVDSVKGRFTISRDNSKNTLYLQMNSLRAEDTAVYYCAREKDCGGDCYSHYGMDVWGQGTTVTVSS VL: DIQMTQSPSSLSASVGDRVTITCRASQGIRNDLGWYQQKPGKAPKRLIYAASSLQSGVPSRFSGSGSGTEFTLTISSLQPEDFATYYCLQHMSLPLTFGGGTKVEIK	–	–	–	–	–	–	–	binding result [23]: binds; binding result [24]: binds; binding result [25]: binds
